Results reported in patent US20260034244A1.

Biological target: VEGFR-2

EC50 (read off the curve): 5 ng/mL
Substance: VEGF-A (from UniProt P15692 27-191) (ligand)
